Patent US20250334585A1

Target: immobilized gingipain (GP protein) of the anti-gingipain ELISA of Example 18
Assay: ELISA on immobilized gingipain

B1: KB001 (antibody, V domains shown)
VH: EVQLKQSGPGLVAPSQSLSITCTVSGFSLSIYSVHWVRQPPGKGLEWLGMIWGGGSSDYNSALKSRLSISKDNSKSQVFLKMNSLQTDDTAMYYCARNGNFYAMDYWGQGTSVTVSS
VL: QIVLTQSPAIMSASLGERVTMTCTASSSVSSSFLHWYQQKPGSSPQLWIYSTSNLASGVPARFSGSGSGTSYSLTISSMEAEDAATYYCHQYHHSPYIYTFGGGTKLEIKR
Q: For B1, which detectable level of concentration is on record?
A: Its detectable level of concentration is 3 ng/mL.
